Reference: article PMC11339918, “Extracellular Domain of IL-10 Receptor Chain-2 (IL-10R2) and Its Arginine-Containing Peptides Are Susceptible Substrates for Human Prostate Kallikrein-2 (KLK2)” (Biochemistry, 2024)
*: point of attachment. EDDnp = O=[N+]([O-])c1ccc(NCCN*)c([N+](=O)[O-])c1

Assays:
KLK3 = test: Hydrolysis by KLK3 of IL-10R2-derived FRET peptides containing F or Y; format: biochemical, human; conditions: 2 nM KLK3, 20 mM Tris-HCl, 1 mM EDTA, 1.5 M sodium citrate, pH 7.8, 37 °C
Excerpt: Obtained from a baculovirus-insect cell line system, purified, and activated as previously reported,[14] MUGB (4-methylumbelliferyl p-guanidino benzoate hydrochloride) was used for the spectrofluorimetric determination of molar concentrations of active KLK2.[15] KLK3 was obtained and assayed as previously reported.[3] […]
FRET Peptides with F FRET Peptides with Y
Abz-MNSVNFKNIL-Q-E DD np Abz-FTAQYLSYR-Q-EDD np
Abz-WESPAFAKGN-Q-EDD np Abz – AQYL SYRIF-Q-EDDnp
Abz-KGNLTFT AQY-Q-EDDnp Abz-SSLSKYGDHT-Q-EDD np
Abz-LSYRIFQDKA-Q-EDD np Abz-KIENEYET WT-Q-EDDnp
Abz-LTEADFSSLS-Q-EDD np Abz-TMKNVYNSWT-Q-ED Dnp
Abz-RVRAEFADEH-Q-EDDnp Abz-NSWTYNVQ-Q-EDDnp
Abz-HSDWVNITFAPVD-Q-EDDnp Abz-NVQYWKNG-Q-EDDnp
Abz-SLHMRFL AP K-Q-EDD np Abz-QITPQYDFEV-Q-EDD np
Abz-GTDEKFQ IT P-Q-EDD np Abz – EPWTTYAVQR-Q-EDD np
Conditions of reactions: 2 nM KLK3, 20 mM Tris -HCl, 1 mM EDTA, 1.5 M sodium citrate, pH 7.8, at 37 °C.
The sequence o f FRET peptide with F or Y in the middle of the sequence can be identiﬁed in the IL-
10R2 ectodomain sequence around F or Y, as shown b e l o w. Cysteines were substituted by Alanine (A)
1 MAWSLGSWLGGCLLVSALGMVPPPENVRMNSVNFKNILQWESPAFAKGNLTFTAQYLSYR.
61 IFQDKCMNTTLTECDFSSLSKYGDHTLRVRAEFADEHSDWVNITFCPVDDTIIGPPGMQV.
121 EVL ADSLHMR FL APKIENEY ET W TMKNVYN SWTYNVQYWK NGTDEKFQIT PQYDFEVLRN.
181 LEPW TTYCVQ VRGF LPDRNK AGEWSEPVCE QTTHDETVPS.

Recombinant KLK2 = molecular target: T1, Recombinant KLK2 (Homo sapiens, UniProt P20151); test: Hydrolysis of FRET peptides by recombinant KLK2 (kinetic parameters); format: biochemical; conditions: pH 8.0, 20 mM Tris–HCl, 1 M sodium citrate, 37 °C, KLK2 1.6 nM; three enzymatic reactions, standard errors 5% or less
T1 construct: made in house; host or cells: baculovirus-insect cell line system
T1 sequence (P20151 25-261): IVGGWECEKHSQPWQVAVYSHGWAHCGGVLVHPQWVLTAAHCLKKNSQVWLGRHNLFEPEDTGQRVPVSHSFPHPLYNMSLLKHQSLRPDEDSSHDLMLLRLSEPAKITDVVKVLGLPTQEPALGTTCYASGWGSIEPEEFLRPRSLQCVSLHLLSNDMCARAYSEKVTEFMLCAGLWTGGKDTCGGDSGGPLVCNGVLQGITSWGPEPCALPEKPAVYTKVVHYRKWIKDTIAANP
Excerpt: Obtained from a baculovirus-insect cell line system, purified, and activated as previously reported,[14] MUGB (4-methylumbelliferyl p-guanidino benzoate hydrochloride) was used for the spectrofluorimetric determination of molar concentrations of active KLK2.[15] KLK3 was obtained and assayed as previously reported.[3]
All of the FRET peptides were obtained by solid-phase peptide synthesis. The purity of FRET peptides to 95% or higher was obtained by semipreparative HPLC on a C18 reversed-phase column and used as protease substrates, as previously reported.[5] Details about the purification and quality of the FRET peptides are provided in the Supporting Information. The enzymatic kinetic measurements were all performed with FRET peptides as previously described.[5]
Five series of FRET peptides derived from Abz-KLRSSK-Q-EDDnp were assayed with KLK2 in 20 mM Tris–HCl, pH 8.0, and 1 M sodium citrate. […] The specificity of subsites S3, S2, S1’, and S2’ was explored by the FRET peptide series Abz-XLRSSKQ-EDDnp (for S3), Abz-KXRSSKQ-EDDnp (for S2), Abz-KLRXSKQ-EDDnp (for S1’), and Abz-KLRSXKQ-EDDnp (for S2’). All of them were hydrolyzed only at R–S or R–X peptide bonds, and the kinetic parameters for their hydrolysis by KLK2 are listed in Table 1.

Substance	hydrolysis by KLK3 (in words) (KLK3)	Km (Recombinant KLK2) [µM]	kcat (Recombinant KLK2) [s^–1]	kcat/Km (Recombinant KLK2) [s^–1 mM^–1]
Abz – AQYL SYRIF-Q-EDDnp [Abz-AQYLSYRIF-Q-EDDnp, FRET peptide with Y derived from IL-10R2 ectodomain]	resistant to hydrolysis by KLK3	–	–	–
Abz – EPWTTYAVQR-Q-EDD np [Abz-EPWTTYAVQR-Q-EDDnp, FRET peptide with Y derived from IL-10R2 ectodomain]	resistant to hydrolysis by KLK3	–	–	–
Abz-FTAQYLSYR-Q-EDD np [Abz-FTAQYLSYR-Q-EDDnp, FRET peptide with Y derived from IL-10R2 ectodomain]	resistant to hydrolysis by KLK3	–	–	–
Abz-GTDEKFQ IT P-Q-EDD np [Abz-GTDEKFQITP-Q-EDDnp, FRET peptide with F derived from IL-10R2 ectodomain]	resistant to hydrolysis by KLK3	–	–	–
Abz-HSDWVNITFAPVD-Q-EDDnp [FRET peptide with F derived from IL-10R2 ectodomain]	resistant to hydrolysis by KLK3	–	–	–
Abz-KGNLTFT AQY-Q-EDDnp [Abz-KGNLTFTAQY-Q-EDDnp, FRET peptide with F derived from IL-10R2 ectodomain]	resistant to hydrolysis by KLK3	–	–	–
Abz-KIENEYET WT-Q-EDDnp [Abz-KIENEYETWT-Q-EDDnp, FRET peptide with Y derived from IL-10R2 ectodomain]	resistant to hydrolysis by KLK3	–	–	–
Abz-LSYRIFQDKA-Q-EDD np [Abz-LSYRIFQDKA-Q-EDDnp, FRET peptide with F derived from IL-10R2 ectodomain]	resistant to hydrolysis by KLK3	–	–	–
Abz-LTEADFSSLS-Q-EDD np [Abz-LTEADFSSLS-Q-EDDnp, FRET peptide with F derived from IL-10R2 ectodomain]	resistant to hydrolysis by KLK3	–	–	–
Abz-MNSVNFKNIL-Q-E DD np [Abz-MNSVNFKNIL-Q-EDDnp, FRET peptide with F derived from IL-10R2 ectodomain]	resistant to hydrolysis by KLK3	–	–	–
Abz-NSWTYNVQ-Q-EDDnp [FRET peptide with Y derived from IL-10R2 ectodomain]	resistant to hydrolysis by KLK3	–	–	–
Abz-NVQYWKNG-Q-EDDnp [FRET peptide with Y derived from IL-10R2 ectodomain]	resistant to hydrolysis by KLK3	–	–	–
Abz-QITPQYDFEV-Q-EDD np [Abz-QITPQYDFEV-Q-EDDnp, FRET peptide with Y derived from IL-10R2 ectodomain]	resistant to hydrolysis by KLK3	–	–	–
Abz-XLRSSKQ-EDDnp, X = H: FRET peptide, S3 series, X = H (N-terminal Abz, C-terminal EDDnp; X = H)	–	4.2	17.2	4095
Abz-XLRSSKQ-EDDnp, X = N: FRET peptide, S3 series, X = N (Abz-NLRSSKQ-EDDnp)	–	7.8	26.7	3423
Abz-XLRSSKQ-EDDnp, X = Q: FRET peptide, S3 series, X = Q (Abz-QLRSSKQ-EDDnp)	–	5.9	25.7	4356
Abz-XLRSSKQ-EDDnp, X = R: FRET peptide, S3 series, X = R (Abz-RLRSSKQ-EDDnp)	–	3.9	22.3	5718
Abz-XLRSSKQ-EDDnp, X = S: FRET peptide, S3 series, X = S (Abz-SLRSSKQ-EDDnp)	–	3	29.8	9933
Abz-XLRSSKQ-EDDnp, X = V: FRET peptide, S3 series, X = V [Abz-XLRSSKQ-EDDnp, X = V] (Abz-VLRSSKQ-EDDnp)	–	4.7	17.9	3808
